Consider 74 sequences from the supplement of paper PMC12636428.

This data set relates to Saccharomyces cerevisiae. The data set can be described thus: transcriptional activation domain activity (GFP:mCherry ratio, weighted mean of sorted bins, harmonized to initial dataset scale) (arbitrary fluorescence ratio units); higher = stronger transcriptional activation. The settings on record: beta-estradiol 1 µM; induction time 4 h. A digest of the protocol:
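The activation activity of each tile is the read-weighted mean of bin median fluorescence, averaged across its barcodes and mapped linearly onto the scale of the initial dataset. Tiles were fused to an estradiol-inducible synthetic transcription factor, barcoded, and integrated at URA3 in yeast diploids carrying a GFP reporter. Induction used 1 uM beta-estradiol in SC for 4 hours at 30 °C, after which cells were sorted into 8 GFP:mCherry bins, and any tile with fewer than 50 reads was dropped.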

Take “SKHSKKRSSKRARSSSSSSSSSSSEEDDRRRRKRRKEKKRSHKKSHTRRRSRS”: the “transcriptional activation domain activity” value was 32700.
The value for “ETCGRCRGQGVVIQKAQLAPGIFQQMQMQCDQCGGQGTQIKHRCKVCGGARVV” was 52100; that for “GETVFYKGQGKKRQEIRAPLRRGMALLHRHGHECLLHEGTQVLKGIKYVLRSD” was 54600; that for “INSTVHNLCELVLLPELFGFCCFSMRFFVFIDLVGTLILPATVVYLFYLIIVV” was 39400.
As to “QSQPAKQPAKQPATKKSSKSKGSKKSKGSKGKGSRGSKSKAKGSRSKAKGKAH”, the “transcriptional activation domain activity” value stood at 23600.
In the case of “MSFLLCGFCITFFFRFFLLSLFWMIRREQGICVSRLMFFFSFFFLSFNIIIFA”, the “transcriptional activation domain activity” value came to 52300.
The value for “MTILVILSILCLFQSYMGGMYSLDAHWVDIGLLRIYCNTLCIKMCQILMQFLL” was 22700; that for “RGDGAEDSNRKRRRRSRSPRRSPPDRARERSTTADDAKGTRHRDRSSHRHKDK” was 32600.
To “MSAVCMFLRNRALFIHIFSVALTLFHVGAFQLLHCNCAYGFLVWGFLGCSLSL” belongs 78500.
For “WHIRCVLLLVAFLHICYQVSYCACGLILVCLNFIFVRQPGGLEMLLTLKTAFY”, the “transcriptional activation domain activity” value stood at 57800.
“MKLVRFLMKLNNETVTIELKNGSVIHGTITSVDPQMNTHLKSVKLSLRTAAPG”: the “transcriptional activation domain activity” value turned out to be 24700.
For the sequence “MELFFGLSFFLAYVPGCYSFLLTILIPLLCYYIFTRYLRCLVLHGLGFFFSLF”, the “transcriptional activation domain activity” value was 77000.
Regarding “MQCSISYWRQNQVTDNFALFYIIPCFLSILLYYSSFQSYYEQRAWRLILFFYF”, the “transcriptional activation domain activity” value came to 56700.
Turning to “GGNIHIRSLFIIAMVFLFFGLVLLTIGFFSDFRKSWFVWRLRTCWLWANGTRF”, the “transcriptional activation domain activity” value was 57800.
To “AREGARIRIVNRTVTVGKRTMSARSEVYDADNSRLVASGSHSKMTGSQPETRL” belongs 17700; to “SDDSSEASAIDSGDSSSQSSSDSDSEDAKKKTRRKTAKAKAKAKSKSKNSKKV”, 24800; to “ESDAGEGDKLSKKQKAESGKAVKPEATEGADKKDKKKDKKEKKKDKEAPAKAD”, less than 6570.
Turning to “MQMIFFLSLTFLILLFFFFFFFSSFPFPFTIITFYISNPLFYFVTLLVSITYF”, the “transcriptional activation domain activity” value was 19100.
To “FQLWKSLNCAYSSVQVTSQGFSIGILFWTLLEYVLHRFLFHLDKLLPDHPIAL” belongs 63900; to “TFLQVCGSSSIGFSSINLSLRTMAIYGQSLYVVIALVILILGHWCLLLHGLML”, 63800; to “EKSQNNSNVINETIDHTDIHAHHADAHDDSFIESEEWLSKFIMDSQIDNDLKL”, 139000.
To “LPTINTAIPTAAVPQQNIAPPFLNTNSSATDSNPNTNLEDSLFFDHDLLSSSI” belongs 49800; to “ATNLFFTAAIFYFIFVVFGVILVLLYKALCELLIRSKKIGSESHLFHFIHNGW”, 44900; to “MGNFLYGFCVIFPYNLVYIIICYFGGITQVVNAGFGYMLLLIVLWTHGQLCLS”, 38600.
Consider “MSIEKKFDDDSPIDIEPSRSYDLDTRRRAALAEIDNASFSRFHVKTVIVAGIG”, for which the “transcriptional activation domain activity” value amounted to 64400.
The value for “DLSKATKEVKEGGERKAAKGERETEQEKVEEGVKKLAVVDKKGGKNKTETNGS” was 17700.
Turning to “MSLFFLFFFFFSSFFSFFLLLPLCSVMFMPPVLSLYGVTMGFLPPPPFFFFLF”, the “transcriptional activation domain activity” value was 37900.
To “LSFLLSFPLPLIPHVLPSLFPCPLFLPLFPPSLPLSPFPPLPLFPPSPFFPLS” belongs 62300.
With “GLPVVLVLVFFGLPTTGFLVFFPADFLVVFFAFLATFLKVVFKGFFAFLLFFP”, the “transcriptional activation domain activity” value was determined as 74300.
In the case of “PKKEEPKRRSASRKRGSIFGGSLFGKKEEAKKEEEKPVEAAAETKAAETEAPA”, the “transcriptional activation domain activity” value amounted to 30700.
For the sequence “FPRLTDMVCELEDYLRPLAEHARAADVELVEIAVVSVYVNILNFSWKARCVFV”, the “transcriptional activation domain activity” value worked out at 43600.
For the sequence “SCIVLYACSKIIIYLFLMEKVYVVTAVGATRANFMLYRINLSLLIPYVGIFAL”, the “transcriptional activation domain activity” value is 52300.
On to “MGIIIVVCVFFLFDRFSFLSCFSSFSLELIRFFIFILLTFLSFCHSPFYLFFF”, for which the “transcriptional activation domain activity” value came to 60900.
As for “GDEIVVVIQRARPVSAAAASSVTAVKVRRGDVRRAVIVRTRKAVRRPDGRYIR”, the “transcriptional activation domain activity” value came out at 70400.
For the sequence “RLHCHVVCPLSHSLLTQVYLFLFFFLSNLLITSLSLPVHFFPFILCLCCIAHF”, the “transcriptional activation domain activity” value was determined as 58000.
“VAEDAVVAEDAVAAVVDVDVNHVAAAAVVDVEDVEGAEDVEGVVDAAAHRVAA”: the “transcriptional activation domain activity” value is 16900.
As for “QSGFNIHLKDAGAGAHMELLTLDQILMFFQGLNNLNLLYFWGVGFDRLAILAF”, the “transcriptional activation domain activity” value came out at 59200.
In the case of “SQVNKGKVQVWVMYFSFSFFFLFFIHLVCWFLLFCFFFFFVPFIIPLFFFFFL”, the “transcriptional activation domain activity” value was 32300.
“SGKQGGRKSGSPHGRRPAIQGARRKGKQSSRKPTGKQTKQSPGKSGARKAFGK”: the “transcriptional activation domain activity” value was determined as 42400.
Turning to “SYWLTIQRYGGWFPNRVQSSSTSFSVFLHFSNPFWLHGWWLLCCLLRLASFVL”, the “transcriptional activation domain activity” value is 79900.
The value for “GFMLIFWNLAGVPLSYCHCSIFVANHLDTITSWGGDFRLPLLVLLFTSYLFMY” was 42000.
Turning to “DHFDAPEPWSMFWYDPALDGTWWDQLPLDHFFPSELGAWASARSSWTDLTGSY”, the “transcriptional activation domain activity” value was 155000.
Take “EDEEASAAHAAPPTTTTAGGRGKKKKGGASRKKENSAAPSKSAKASAPANIPP”: the “transcriptional activation domain activity” value came to 20700.
On to “LILGLVHFLYVFFVQIFSHNFTLIPLALDCNFTWEYSVTFVWIGLHTLVAFPI”, for which the “transcriptional activation domain activity” value is 54500.
With “MAMGLMCKACLLTPQHFLPLLWPSYPRPFFFFFFFYYSYCCSCCDCISIFGLN”, the “transcriptional activation domain activity” value is 43400.
The value for “AGLIVLSGRFNGVVRCLREGFRLRTNIDKCMIFYISCKIALISLFTLLLLVEG” was 46100; that for “DVDVDVGVDGRGRGFEAGDGREDGKGEEEGGRRLKRAGTDGEAVGGARAREVW” was 32500.
The value for “YIKVLVAVLFVLDTLHVYYLSATFWVVCIRGRLDISGLTVLPWQTPASILMTV” was 42300; that for “GEKATEAANGEGSGTEGSRRRASGRGRGRGRGRNGRGGARGGRAGDAEEKKEG” was 9280.
For the sequence “IYYDPASRDKVYCSRAPIAYVYKRLVRMALESRFVQVAPVALKVLGIVLVMLY”, the “transcriptional activation domain activity” value stood at 62500.
To “PVPAAAASPVAVPQPAPEQSKPVVKEEKKPEKKVDEERKRKGTKEGQQQQQQQ” belongs 16700.
On to “KWVAHSVVEKCVLLLILWHRYAMDVVRECSEAWEKLITGKTAPNGISTTNLTV”, for which the “transcriptional activation domain activity” value worked out at 31500.
Consider “MFLGFFFLFFYLFIMDHILDFWLLLRIIILIFAYSHCSFLRTLILFFRINFFF”, for which the “transcriptional activation domain activity” value worked out at 69000.
On to “LRELHKSSFTNSLRQWVMSGVYQLDPFVRPYLRAYAIACLRIVFHILPHLTSM”, for which the “transcriptional activation domain activity” value came out at 48200.
Turning to “ARGTTTPPPAPSTGSPSAPAAASRSSTGRSSATASCRTARCARASGRSAPGAG”, the “transcriptional activation domain activity” value came to 42900.
“MSAATATKPPATGTTPRREATSRASAPSPAAASRTPARSSTPTATASATTSSP”: the “transcriptional activation domain activity” value amounted to 18000.
Take “CFLVLSCRWLLVLPALTYLATSVLYTYDITITVTGQTRSVRLPSSIACILNVA”: the “transcriptional activation domain activity” value was found to be 42200.
With “SGQSVVWEAQKLVHKGFLIDAHVVVVFYVMGCFFIYVLARLRCSNPKLIVMQI”, the “transcriptional activation domain activity” value was found to be 62800.
Regarding “KESPILVGLICIFNASTFLQMMFYAAISLPLNEDACFGVNFVQTLLWHISFCT”, the “transcriptional activation domain activity” value was determined as 74000.
In the case of “MCQWWQIVLIRWMNLQILKYWAVEVKPLMMMWRRLIVIIIVILYRNFFFFFLM”, the “transcriptional activation domain activity” value was 30900.
As for “RLLRNLPLIAGHGPKYLQGIDKFVENEFLTVVGTWMRATKFDVLSFMIHYVTL”, the “transcriptional activation domain activity” value is 65500.
Regarding “AKAEAEIKTEAEVKAEAEAPADEEAQTAGGKKKKAKNKKKKKAAAAAAAAAEA”, the “transcriptional activation domain activity” value was 36300.
As for “NCVNLSFQLLFGELVVFLISLYMSVLYGLLYMFFVAQLPPEVRLIPMMCSCWF”, the “transcriptional activation domain activity” value was 59700.
In the case of “MVFDCEFQHIQFSGSLLCLPLWDFFLRCIVCGHRSIFYIFYIIFVILFLHFLT”, the “transcriptional activation domain activity” value was determined as 30500.
With “ASAAASGASTPATAAPPGGLFGKTPATAAPAAATPAATKSLFPAAATTTAPAA”, the “transcriptional activation domain activity” value was determined as 45700.
To “LTQSRGFIWPPILLAVFFSALGGFYWWSASFFLLASPVAFAPCLFWVLLLFLF” belongs 18000; to “KQYCVRPNSGRIEPGKDVEVQILLQAMKEDPPMDAKCRDKFLVQSVAVTADKE”, 59200; to “ATAANEEGEEGEATPKKTPRKRAAKKQDVDGDASPKKKGRGKKVSDDETNVKS”, less than 6570.
With “SVASEKGADDSAEEDHEHEHRHKKRRHREHREREHRSSRHKHRSSRRHAEEVD”, the “transcriptional activation domain activity” value is 21000.
“MFCFFEFLFFYKEDLAAYALCSCSQLPASFFLFLFPSPLWLFFFFFIFCLTFM”: the “transcriptional activation domain activity” value is 38900.
With “VRRLLWVTVIFDICFGMLYVLLAIFQCRPISYYWLGWDGEHQGTCLNVNGLAW”, the “transcriptional activation domain activity” value is 46600.
The value for “LMILMIINFIILNIPVAVILLIYFVFKIGFYVFIWKRIRFISILLRATVSHLR” was 62900; that for “ELSHPSALFCYILFRLFPIFMYLFGHLVLMLVTQESWFILYFIVLILLVAADF” was 60500.
As to “CYVLRDVFFCTVFFAFAGSIEALLQSGFCGYFPLTSTWQIVLLRALMWMTYWW”, the “transcriptional activation domain activity” value was found to be 51000.
